Results as given in US20240376171A1 (Hoffmann-La Roche, published 2024).
Each block holds one binder with its values, some of them ahead of it.

Experiments:
[1] = target: T1, PD1 on activated human CD4 and CD8 T cells (human, UniProt Q15116 25-288); test: flow cytometry, CD3/CD28-activated human PBMCs gated on CD3+CD4+ T cells, FITC anti-mouse Fc secondary antibody; no Matriptase digestion described
T1 construct: whole, on cells; Endogenous PD1 on CD3/CD28-stimulated T cells; also called human PD1; PD1 receptor
T1 sequence (Q15116 25-288): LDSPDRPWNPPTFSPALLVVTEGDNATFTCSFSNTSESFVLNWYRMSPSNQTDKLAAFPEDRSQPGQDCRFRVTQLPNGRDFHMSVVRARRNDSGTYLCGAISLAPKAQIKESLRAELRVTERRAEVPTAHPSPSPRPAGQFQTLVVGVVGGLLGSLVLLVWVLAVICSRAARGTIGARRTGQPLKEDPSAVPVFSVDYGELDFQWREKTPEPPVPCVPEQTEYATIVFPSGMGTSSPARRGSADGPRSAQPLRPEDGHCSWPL
Procedure: (§1) PBMCs were bought from Biomex from a healthy donor (Lot 5000899PB). The PBMCs were stimulated for 3 days with CD3 and CD28 to induce upregulation of PD1 on T cells. Therefore, PBMCs were seeded in medium (RPMI1640, 10% FCS, 2 mM Glutamine) into cell culture flasks that were coated for 1 h at 37° C. with 1 μg/ml CD3 (clone OKT3, 302914, BioLegend). CD28 was added in solution to the PBMCs at a concentration of 1 μg/ml (clone CD28.2, 302914, BioLegend). After three days, PBMCs were harvested and transferred into a 96 well round bottom plate (200′000 cells per well). The cells were washed with FACS buffer (PBS, 2% FBS, 5 mM EDTA, 0.025% NaN3) and stained with 30 μl of corresponding TA PD1-IL2v constructs in FACS buffer for 30 min at 4° C. The cells were washed twice with FACS buffer to remove unbound molecules. Then 30 μl of the diluted FITC anti-mouse Fc specific secondary antibody (1:50 dilution, 115-096-071, Jackson ImmunoResearch) or for the human constructs the diluted FITC anti-human Fc specific secondary antibody (1:50 dilution, 115-096-098, Jackson ImmunoResearch) was added to the cells. After 30 min incubation at 4° C. the cells were washed twice with FACS buffer. […] Finally the cells were resuspended in 150 μl FACs buffer and measured using a BD Fortessa gating on CD3+CD4+ cells (CD4 T cells) and CD3+CD8+ cells (CD8 T cells).

[2] = target: T1, PD1 on activated human CD4 and CD8 T …; test: flow cytometry, CD3/CD28-activated human PBMCs gated on CD3+CD8+ T cells, FITC anti-mouse Fc secondary antibody; no Matriptase digestion described
Procedure: as §1

EC50 (read off the curve) [1]: ~2 nM
EC50 (read off the curve) [2]: ~2 nM
B1: murine TA PD1-IL2v, MT204, 2xPQARK, in line (antibody, mouse IgG1, kappa)
light: KIVLTQSPASLPVSLGQRATISCRASESVDTSDNSFIHWYQQRPGQSPKLLIYRSSTLESGVPARFSGSGSRTDFTLTIDPVEADDVATYYCQQNYDVPWTFGGGTKLEIKRADAAPTVSIFPPSSEQLTSGGASVVCFLNNFYPKDINVKWKIDGSERQNGVLNSWTDQDSKDSTYSMSSTLTLTKDEYERHNSYTCEATHKTSTSPIVKSFNRNEC
heavy 1: EVILVESGGGLVKPGGSLKLSCAASGFSFSSYTMSWVRQTPEKRLDWVATISGGGRDIYYPDSVKGRFTISRDNAKNTLYLEMSSLMSEDTALYYCVLLTGRVYFALDSWGQGTSVTVSSAKTTPPSVYPLAPGSAAQTNSMVTLGCLVKGYFPEPVTVTWNSGSLSSGVHTFPAVLQSDLYTLSSSVTVPSSTWPSQTVTCNVAHPASSTKVDKKIVPRDCGCKPCICTVPEVSSVFIFPPKPKDVLTITLTPKVTCVVVAISKDDPEVQFSWFVDDVEVHTAQTKPREEQINSTFRSVSELPIMHQDWLNGKEFKCRVNSAAFGAPIEKTISKTKGRPKAPQVYTIPPPKKQMAKDKVSLTCMITNFFPEDITVEWQWNGQPAENYKNTQPIMKTDGSYFVYSKLNVQKSNWEAGNTFTCSVLHEGLHNHHTEKSLSHSPG
heavy 2: EVILVESGGGLVKPGGSLKLSCAASGFSFSSYTMSWVRQTPEKRLDWVATISGGGRDIYYPDSVKGRFTISRDNAKNTLYLEMSSLMSEDTALYYCVLLTGRVYFALDSWGQGTSVTVSSAKTTPPSVYPLAPGSAAQTNSMVTLGCLVKGYFPEPVTVTWNSGSLSSGVHTFPAVLQSDLYTLSSSVTVPSSTWPSQTVTCNVAHPASSTKVDKKIVPRDCGCKPCICTVPEVSSVFIFPPKPKDVLTITLTPKVTCVVVAISKDDPEVQFSWFVDDVEVHTAQTKPREEQINSTFRSVSELPIMHQDWLNGKEFKCRVNSAAFGAPIEKTISKTKGRPKAPQVYTIPPPKEQMAKDKVSLTCMITNFFPEDITVEWQWNGQPAENYDNTQPIMDTDGSYFVYSDLNVQKSNWEAGNTFTCSVLHEGLHNHHTEKSLSHSPGGGGGSGGGGSGGGGGAPASSSTKKTQLQLEHLLLDLQMILNGINNYKNPKLTRMLTAKFAMPKKATELKHLQCLEEELKPLEEVLNGAQSKNFHLRPRDLISNINVIVLELKGSETTFMCEYADETATIVEFLNRWITFAQSIISTLTGGGGSGGGGSPQARKGGGGSGGGGSGGGGSGGGGSGGGEVQLVESGGGLVQPGGSLRLSCAASGFTFSSYTLAWVRQAPGKGLEWVAAIDSSSYTYSPDTVRGRFTISRDNAKNSLYLQMNSLRAEDTAVYYCARDSNWDALDYWGQGTTVTVSSGGGGSGGPQARKGGGGSGGGDIQMTQSPSSLSASVGDRVTITCKASQNVGTNVGWYQQKPGKAPKALIYSASFRYSGVPSRFSGSGSGTDFTLTISSLQPEDFATYYCQQYYTYPYTFGGGTKVEIK
notes: Murine surrogate: bivalent human PD1-targeted murine IgG DA PG with masked human IL2v in-line on the C-terminus of the Fc DD- chain, two PQARK sites; also called P1AG9983; P1AG9983-001

EC50 (read off the curve) [1]: ~2 nM
EC50 (read off the curve) [2]: ~2 nM
B2: murine PD1-IL2v, unmasked, in line (antibody, mouse IgG1, kappa)
light: B1 light
heavy 1: B1 heavy 1
heavy 2: EVILVESGGGLVKPGGSLKLSCAASGFSFSSYTMSWVRQTPEKRLDWVATISGGGRDIYYPDSVKGRFTISRDNAKNTLYLEMSSLMSEDTALYYCVLLTGRVYFALDSWGQGTSVTVSSAKTTPPSVYPLAPGSAAQTNSMVTLGCLVKGYFPEPVTVTWNSGSLSSGVHTFPAVLQSDLYTLSSSVTVPSSTWPSQTVTCNVAHPASSTKVDKKIVPRDCGCKPCICTVPEVSSVFIFPPKPKDVLTITLTPKVTCVVVAISKDDPEVQFSWFVDDVEVHTAQTKPREEQINSTFRSVSELPIMHQDWLNGKEFKCRVNSAAFGAPIEKTISKTKGRPKAPQVYTIPPPKEQMAKDKVSLTCMITNFFPEDITVEWQWNGQPAENYDNTQPIMDTDGSYFVYSDLNVQKSNWEAGNTFTCSVLHEGLHNHHTEKSLSHSPGGGGGSGGGGSGGGGGAPASSSTKKTQLQLEHLLLDLQMILNGINNYKNPKLTRMLTAKFAMPKKATELKHLQCLEEELKPLEEVLNGAQSKNFHLRPRDLISNINVIVLELKGSETTFMCEYADETATIVEFLNRWITFAQSIISTLT
notes: Murine surrogate: bivalent human PD1-targeted murine IgG DA PG with IL2v fused to the C-terminus of the Fc DD- chain (non-masked control); also called P1AG7552; P1AG7552-006
